# Reference: paper PMC7575002
# T1: major tail protein gpV of bacteriophage lambda, in free tails (bacteriophage lambda), P03733
# T1 chain: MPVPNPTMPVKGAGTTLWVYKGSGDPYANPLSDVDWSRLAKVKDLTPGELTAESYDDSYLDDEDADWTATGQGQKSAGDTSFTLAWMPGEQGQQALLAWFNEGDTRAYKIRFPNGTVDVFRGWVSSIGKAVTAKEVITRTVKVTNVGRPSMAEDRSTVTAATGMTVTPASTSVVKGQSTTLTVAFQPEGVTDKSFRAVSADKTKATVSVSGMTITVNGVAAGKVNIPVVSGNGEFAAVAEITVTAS
# B1: major tail protein gpV of bacteriophage lambda, in free tails, P03733 1-246 (natural protein)
# chain: T1 chain
# Biological target: T1, major tail protein gpV of bacteriophage …
# Assay: cryo-EM structure
# Settings: remark: other sources report otherwise
binder,measurement,value
B1,stoichiometry N,6
